Reference: patent publication US20220204580A1 (AstraZeneca / MedImmune, published 2022)
Numbered stars: 1 amine (or outer) side, 2 acyl side, 3 side chain; on linkers, the order of the positions; unused ones are H or OH. Bridge positions count the residues as written; N and C are the ends. Square brackets hold non-standard residues; d marks the D form. Side chains are listed from the residue outwards. Ends that are not written are not given here. * marks the point of attachment. C18 diacid = O=C(O)CCCCCCCCCCCCCCCCC(=O)*; γGlu = O=C(O)[C@H](CCC(=O)[*:2])N[*:1]; αMeF = C[C@](N)(Cc1ccccc1)C(=O)O; Dab = NCC[C@H](N)C(=O)O; AEEA = NCCOCCOCC(=O)O; Aib = CC(C)(N)C(=O)O

T1: human amylin receptor (calcitonin receptor co-expressed with receptor activity modifying protein, RAMP3) (human, UniProt P30988 25-474; O60896 24-148)
T1 sequence (looked up) 1: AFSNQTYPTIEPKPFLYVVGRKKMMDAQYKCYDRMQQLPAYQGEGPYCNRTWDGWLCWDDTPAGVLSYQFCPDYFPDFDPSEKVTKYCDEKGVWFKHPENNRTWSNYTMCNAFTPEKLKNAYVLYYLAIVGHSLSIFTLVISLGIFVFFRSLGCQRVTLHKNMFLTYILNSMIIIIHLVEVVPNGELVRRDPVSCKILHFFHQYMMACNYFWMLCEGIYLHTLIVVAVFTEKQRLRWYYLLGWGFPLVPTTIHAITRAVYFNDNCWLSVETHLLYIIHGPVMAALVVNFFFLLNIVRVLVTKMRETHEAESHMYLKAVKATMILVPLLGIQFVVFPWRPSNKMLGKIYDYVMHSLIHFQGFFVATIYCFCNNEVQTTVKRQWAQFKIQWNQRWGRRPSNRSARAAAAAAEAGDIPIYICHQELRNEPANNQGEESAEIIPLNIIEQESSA
T1 sequence (looked up) 2: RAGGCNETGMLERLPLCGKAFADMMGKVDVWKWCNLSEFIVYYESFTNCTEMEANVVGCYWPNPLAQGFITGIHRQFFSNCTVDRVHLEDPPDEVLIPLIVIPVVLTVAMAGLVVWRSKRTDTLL

T2: human calcitonin receptor (human, UniProt P30988 25-474)
T2 sequence (looked up): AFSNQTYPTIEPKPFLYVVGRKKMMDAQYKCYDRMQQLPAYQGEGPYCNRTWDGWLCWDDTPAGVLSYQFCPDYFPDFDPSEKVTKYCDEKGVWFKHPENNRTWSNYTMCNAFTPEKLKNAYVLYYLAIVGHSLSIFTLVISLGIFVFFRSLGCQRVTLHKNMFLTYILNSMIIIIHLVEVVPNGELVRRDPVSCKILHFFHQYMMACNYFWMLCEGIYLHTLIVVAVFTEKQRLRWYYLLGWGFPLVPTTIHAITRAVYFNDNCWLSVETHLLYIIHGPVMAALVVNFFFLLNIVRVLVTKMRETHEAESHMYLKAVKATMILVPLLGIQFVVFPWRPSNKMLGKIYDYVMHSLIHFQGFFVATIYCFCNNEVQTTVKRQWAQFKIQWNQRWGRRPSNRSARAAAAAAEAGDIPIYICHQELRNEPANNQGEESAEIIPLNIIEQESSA


Tests used:
[1] = biological target: T1, human amylin receptor (calcitonin …); test: cell-based or functional assay
[2] = biological target: T2, human calcitonin receptor; test: cell-based or functional assay

Binder	EC50 (cAMP production) [1]	Ratio (EC50 hCTR / EC50 hAMYR3) [1]	EC50 (cAMP production) [2]
K([γGlu-C18 diacid])KCNTATCATQRLA[Dab]FL[Aib]HSSNNFGPILPPTEVGSNTY-NH2 (disulfide 3-8; N-terminus assumed; SMILES CC[C@H](C)[C@H](NC(=O)[C@@H]1CCCN1C(=O)CNC(=O)[C@H](Cc1ccccc1)NC(=O)[C@H](CC(N)=O)NC(=O)[C@H](CC(N)=O)NC(=O)[C@H](CO)NC(=O)[C@H](CO)NC(=O)[C@H](Cc1c[nH]cn1)NC(=O)C(C)(C)NC(=O)[C@H](CC(C)C)NC(=O)[C@H](Cc1ccccc1)NC(=O)[C@H](CCN)NC(=O)[C@H](C)NC(=O)[C@H](CC(C)C)NC(=O)[C@H](CCCNC(=N)N)NC(=O)[C@H](CCC(N)=O)NC(=O)[C@@H](NC(=O)[C@H](C)NC(=O)[C@@H]1CSSC[C@H](NC(=O)[C@H](CCCCN)NC(=O)[C@@H](N)CCCCNC(=O)CC[C@H](NC(=O)CCCCCCCCCCCCCCCCC(=O)O)C(=O)O)C(=O)N[C@@H](CC(N)=O)C(=O)N[C@@H]([C@@H](C)O)C(=O)N[C@@H](C)C(=O)N[C@@H]([C@@H](C)O)C(=O)N1)[C@@H](C)O)C(=O)N[C@@H](CC(C)C)C(=O)N1CCC[C@H]1C(=O)N1CCC[C@H]1C(=O)N[C@H](C(=O)N[C@@H](CCC(=O)O)C(=O)N[C@H](C(=O)NCC(=O)N[C@@H](CO)C(=O)N[C@@H](CC(N)=O)C(=O)N[C@H](C(=O)N[C@@H](Cc1ccc(O)cc1)C(N)=O)[C@@H](C)O)C(C)C)[C@@H](C)O) [Peptide 156 (SEQ ID NO: 156)]	3.75 nM	22.3	83.8 nM
K([γGlu-C18 diacid])CNTATCATQRLANFLRHSSNN[αMeF]GPILPPTNVGSNTY-NH2 (disulfide 2-7; N-terminus assumed; SMILES CC[C@H](C)[C@H](NC(=O)[C@@H]1CCCN1C(=O)CNC(=O)[C@](C)(Cc1ccccc1)NC(=O)[C@H](CC(N)=O)NC(=O)[C@H](CC(N)=O)NC(=O)[C@H](CO)NC(=O)[C@H](CO)NC(=O)[C@H](Cc1c[nH]cn1)NC(=O)[C@H](CCCNC(=N)N)NC(=O)[C@H](CC(C)C)NC(=O)[C@H](Cc1ccccc1)NC(=O)[C@H](CC(N)=O)NC(=O)[C@H](C)NC(=O)[C@H](CC(C)C)NC(=O)[C@H](CCCNC(=N)N)NC(=O)[C@H](CCC(N)=O)NC(=O)[C@@H](NC(=O)[C@H](C)NC(=O)[C@@H]1CSSC[C@H](NC(=O)[C@@H](N)CCCCNC(=O)CC[C@H](NC(=O)CCCCCCCCCCCCCCCCC(=O)O)C(=O)O)C(=O)N[C@@H](CC(N)=O)C(=O)N[C@@H]([C@@H](C)O)C(=O)N[C@@H](C)C(=O)N[C@@H]([C@@H](C)O)C(=O)N1)[C@@H](C)O)C(=O)N[C@@H](CC(C)C)C(=O)N1CCC[C@H]1C(=O)N1CCC[C@H]1C(=O)N[C@H](C(=O)N[C@@H](CC(N)=O)C(=O)N[C@H](C(=O)NCC(=O)N[C@@H](CO)C(=O)N[C@@H](CC(N)=O)C(=O)N[C@H](C(=O)N[C@@H](Cc1ccc(O)cc1)C(N)=O)[C@@H](C)O)C(C)C)[C@@H](C)O) [Peptide 19 (SEQ ID NO: 19)]	0.278 nM	15	4.04 nM
K([γGlu-C18 diacid])CNTATCATQRLANFL[Aib]HSSNNFGPILPPTRVGSNTY-NH2 (disulfide 2-7; N-terminus assumed; SMILES CC[C@H](C)[C@H](NC(=O)[C@@H]1CCCN1C(=O)CNC(=O)[C@H](Cc1ccccc1)NC(=O)[C@H](CC(N)=O)NC(=O)[C@H](CC(N)=O)NC(=O)[C@H](CO)NC(=O)[C@H](CO)NC(=O)[C@H](Cc1c[nH]cn1)NC(=O)C(C)(C)NC(=O)[C@H](CC(C)C)NC(=O)[C@H](Cc1ccccc1)NC(=O)[C@H](CC(N)=O)NC(=O)[C@H](C)NC(=O)[C@H](CC(C)C)NC(=O)[C@H](CCCNC(=N)N)NC(=O)[C@H](CCC(N)=O)NC(=O)[C@@H](NC(=O)[C@H](C)NC(=O)[C@@H]1CSSC[C@H](NC(=O)[C@@H](N)CCCCNC(=O)CC[C@H](NC(=O)CCCCCCCCCCCCCCCCC(=O)O)C(=O)O)C(=O)N[C@@H](CC(N)=O)C(=O)N[C@@H]([C@@H](C)O)C(=O)N[C@@H](C)C(=O)N[C@@H]([C@@H](C)O)C(=O)N1)[C@@H](C)O)C(=O)N[C@@H](CC(C)C)C(=O)N1CCC[C@H]1C(=O)N1CCC[C@H]1C(=O)N[C@H](C(=O)N[C@@H](CCCNC(=N)N)C(=O)N[C@H](C(=O)NCC(=O)N[C@@H](CO)C(=O)N[C@@H](CC(N)=O)C(=O)N[C@H](C(=O)N[C@@H](Cc1ccc(O)cc1)C(N)=O)[C@@H](C)O)C(C)C)[C@@H](C)O) [Peptide 155 (SEQ ID NO: 155)]	0.329 nM	11.9	3.93 nM
K([AEEA-AEEA-γGlu-C18 diacid])CNTATCATQRLANFLRHSSNN[αMeF]GPILPPTEVGSNTY-NH2 (disulfide 2-7; N-terminus assumed; SMILES CC[C@H](C)[C@H](NC(=O)[C@@H]1CCCN1C(=O)CNC(=O)[C@](C)(Cc1ccccc1)NC(=O)[C@H](CC(N)=O)NC(=O)[C@H](CC(N)=O)NC(=O)[C@H](CO)NC(=O)[C@H](CO)NC(=O)[C@H](Cc1c[nH]cn1)NC(=O)[C@H](CCCNC(=N)N)NC(=O)[C@H](CC(C)C)NC(=O)[C@H](Cc1ccccc1)NC(=O)[C@H](CC(N)=O)NC(=O)[C@H](C)NC(=O)[C@H](CC(C)C)NC(=O)[C@H](CCCNC(=N)N)NC(=O)[C@H](CCC(N)=O)NC(=O)[C@@H](NC(=O)[C@H](C)NC(=O)[C@@H]1CSSC[C@H](NC(=O)[C@@H](N)CCCCNC(=O)COCCOCCNC(=O)COCCOCCNC(=O)CC[C@H](NC(=O)CCCCCCCCCCCCCCCCC(=O)O)C(=O)O)C(=O)N[C@@H](CC(N)=O)C(=O)N[C@@H]([C@@H](C)O)C(=O)N[C@@H](C)C(=O)N[C@@H]([C@@H](C)O)C(=O)N1)[C@@H](C)O)C(=O)N[C@@H](CC(C)C)C(=O)N1CCC[C@H]1C(=O)N1CCC[C@H]1C(=O)N[C@H](C(=O)N[C@@H](CCC(=O)O)C(=O)N[C@H](C(=O)NCC(=O)N[C@@H](CO)C(=O)N[C@@H](CC(N)=O)C(=O)N[C@H](C(=O)N[C@@H](Cc1ccc(O)cc1)C(N)=O)[C@@H](C)O)C(C)C)[C@@H](C)O) [Peptide 17 (SEQ ID NO: 17)]	0.365 nM	19	7.08 nM
